Source: FireProtDB
“And” between values parts separate entries of the source, which are not always exact repeats. Equal values may be shown once.

Details: whole UniProt chain shown
[1] = Canis lupus familiaris, pH 4.5, 25 °C, GdnHCl, CD, acetate 50 mM, CaCl2 2 mM
[2] = Canis lupus familiaris, pH 4.5, Thermal, DSC, Sodium acetate/glycine-HCl 50 mM/50 mM/, transition: 3, reversible: yes
[3] = Enterobacteria phage 434, pH 6, 20 °C, Urea, Fluorescence, KH2PO4 25 mM, KCl 100 mM, reversible: yes(>95%)
[4] = Enterobacteria phage 434, pH 6, 20 °C, Urea, far-UV CD, KH2PO4 25 mM, KCl 100 mM, reversible: yes(>95%)
[5] = Enterobacteria phage 434, pH 7, Thermal, DSC, K-phosphate 20 mM
[6] = Bos taurus, pH 7, 25 °C, GdnHCl, Absorbance, MOPS 30 mM, reversible: yes
[7] = Bos taurus, pH 7, 25 °C, GdnHCl, Fluorescence, MOPS 30 mM, reversible: yes
[8] = Bos taurus, pH 7, 25 °C, GdnSCN, Fluorescence, MOPS 30 mM, reversible: YES
[9] = Bos taurus, pH 7.2, 25 °C, Urea, CD, Phosphate 20 mM, reversible: yes
[10] = Bos taurus, pH 7.4, Thermal, DSC, sodium phosphate 50 mM, reversible: yes

B1: Lysozyme C, milk isozyme wild type, P81708 (protein)
chain: KIFSKCELARKLKSMGMDGFHGYSLANWVCMAEYESNFNTQAFNGRNSNGSSDYGIFQLNSKWWCKSNSHSSANACNIMCSKFLDDNIDDDIACAKRVVKDPNGMSAWVAWVKHCKGKDLSKYLASCNL
With B1 the denaturant m value [1] was 2.43 kcal/mol/M and 1 kcal/mol/M, the unfolding free energy [1] was 2.84 kcal/mol and 5.27 kcal/mol and the denaturant m value (Canis lupus familiaris, pH 4.5, 25 °C, GdnHCl, CD, acetate 50 mM) was 2.48 kcal/mol/M and 1 kcal/mol/M. For the same protein, the Tm [2] was 39 °C and the “unfolding enthalpy (calorimetric)” value [2] was 44.6 kcal/mol.

B2: Pepsin A wild type, P00792 (protein)
chain: MSVVKIPLVKKKSLRQNLIENGKLKEFMRTHKYNLGSKYIREAATLVSEQPLQNYLDTEYFGTIGIGTPAQDFTVIFDTGSSNLWVPSIYCSSEACTNHNRFNPQDSSTYEATSETLSITYGTGSMTGILGYDTVQVGGISDTNQIFGLSETEPGSFLYYAPFDGILGLAYPSISSSGATPVFDNIWDQGLVSQDLFSVYLSSNEESGSVVIFGDIDSSYYSGSLNWVPVSVEGYWQITVDSITMNGESIACSDGCQAIVDTGTSLLAGPTTAISNIQSYIGASEDSSGEVVISCSSIDSLPDIVFTINGVQYPVPPSAYILQSNGICSSGFEGMDISTSSGDLWILGDVFIRQYFTVFDRGNNQIGLAPVA
Protein B2 has an unfolding free energy (Bos taurus, pH 7.5, 25 °C, Urea, CD, Tris-HCl 20 mM, reversible: yes) of 6.36 kcal/mol and an unfolding free energy (Bos taurus, pH 9, 25 °C, Urea, CD, Tris-HCl 20 mM, reversible: yes) of 2.72 kcal/mol.

B3: Lysozyme C wild type, P00708 (protein)
chain: KDIPRCELVKILRRHGFEGFVGKTVANWVCLVKHESGYRTTAFNNNGPNSRDYGIFQINSKYWCNDGKTRGSKNACNINCSKLRDDNIADDIQCAKKIAREARGLTPWVAWKKYCQGKDLSSYVRGC
Work on B3 yielded a Tm (Columba livia, pH 6, Thermal, CD, MES 50 mM, potassium chloride 100 mM, transition: 3) of 70 °C.

B4: Regulatory protein cro wild type, P03036 (protein)
chain: MQTLSERLKKRRIALKMTQTELATKAGVKQQSIQLIEAGVTKRPRFLFEIAMALNCDPVWLQYGTKRGKAA
For B4, the denaturant m value [3] was 1.05 kcal/mol/M, the “denaturant midpoint (higher = more stable)” value (“denaturant midpoint” below) [3] was 3.35 M and the unfolding free energy [3] was 3.5 kcal/mol. The denaturant m value [4] was 1.02 kcal/mol/M, the “denaturant midpoint” value [4] was 3.5 M and the unfolding free energy [4] was 3.6 kcal/mol. For the same protein, the Tm [5] was 46.4 °C and the “unfolding enthalpy (calorimetric)” value [5] was 53.8 kcal/mol.

B5: Cytochrome b5 wild type, P00171 (protein)
chain: MAEESSKAVKYYTLEEIQKHNNSKSTWLILHYKVYDLTKFLEEHPGGEEVLREQAGGDATENFEDVGHSTDARELSKTFIIGELHPDDRSKITKPSESIITTIDSNPSWWTNWLIPAISALFVALIYHLYTSEN
In the case of B5, the unfolding free energy (Bos taurus, pH 7, 10 °C, GdnHCl, Fluorescence, MOPS 30 mM, reversible: yes) is reported as 2.77 kcal/mol, the “denaturant midpoint” value (Bos taurus, pH 7, 25 °C, GdmSCN, UV/visible spectrophotometer, MOPS 30mM) is reported as 1.52 M and the denaturant m value [6] is reported as 2.14 kcal/mol/M. The “denaturant midpoint” value [6] was 3.05 M, the unfolding free energy [6] was 6.57 kcal/mol and the denaturant m value [7] was 2.05 kcal/mol/M. For the same protein, the “denaturant midpoint” value [7] was 2.99 M, the unfolding free energy [7] was 6.09 kcal/mol and the denaturant m value [8] was 2.4 kcal/mol/M and 1.7 kcal/mol/M. The unfolding free energy [8] was 3.2 kcal/mol and 2.7 kcal/mol, the unfolding free energy (Bos taurus, pH 7, 25 °C, Thermal, DSC, sodium phosphate 50 mM, reversible: yes) was 5.98 kcal/mol and the Tm (Bos taurus, pH 7, Thermal, Fluorescence, potassium phosphate 50 mM, reversible: YES) was 85.5 °C. The Tm (Bos taurus, pH 7, Thermal, UV spectroscopy, Sodium phosphate 50 mM, reversible: Yes) was 79.4 °C, the Tm (Bos taurus, pH 7, Thermal, UV/visible spectrophotometer, Potassium phosphate 50mM) was 67.6 °C and the denaturant m value [9] was 0.93 kcal/mol/M. The unfolding free energy [9] was 6.57 kcal/mol, the “unfolding enthalpy (van 't Hoff)” value (Bos taurus, pH 7.2, Thermal, Absorbance, Phosphate 20 mM, reversible: yes) was 82.5 kcal/mol and 33.9 kcal/mol and the Tm [10] was 70.7 °C. For the same protein, the “heat capacity change of unfolding” value [10] was 0.13 kcal/mol/K.
